# According to PMC6511850 (Nucleic Acids Research, 2019):
# B1: Bacillus subtilis m1A22 tRNA methyltransferase TrmK (wild type) (enzyme, UniProt P54471 1-238, looked up)
# chain: MNELKLSKRLQTVAEYIPNGAVMADIGSDHAYLPCYAVLNHKASGAIAGEITDGPFLSAKRQVEKSGLNSHISVRQGDGLEVIKKGEADAITIAGMGGALIAHILEAGKDKLTGKERLILQPNIHAVHIREWLYKERYALIDEVILEEDGKCYEVLVAEAGDRDAAYDGISLSAGMLVGPFLAKEKNAVFLKKWTQELQHTQSIYEQISQAADTEQNKQKLKELADRMELLKEVIDHG
# Target: the molecule itself
# Experiment: SEC
protein,measurement,value
B1,binding result,binds
